B1: Casein kinase II subunit alpha (Homo sapiens), P68400 (parent)
chain: MSGPVPSRARVYTDVNTHRPREYWDYESHVVEWGNQDDYQLVRKLGRGKYSEVFEAINITNNEKVVVKILKPVKKKKIKREIKILENLRGGPNIITLADIVKDPVSRTPALVFEHVNNTDFKQLYQTLTDYDIRFYMYEILKALDYCHSMGIMHRDVKPHNVMIDHEHRKLRLIDWGLAEFYHPGQEYNVRVASRYFKGPELLVDYQMYDYSLDMWSLGCMLASMIFRKEPFFHGHDNYDQLVRIAKVLGTEDLYDYIDKYNIELDPRFNDILGRHSRKRWERFVHSENQHLVSPEALDFLDKLLRYDHQSRLTAREAMEHPYFYTVVKDQARMGSSSMPGGSTPVSSANMMSGISSVPTPSPLGPLAGSPVIAAANPLGMPVPAAAGAQQ
partner: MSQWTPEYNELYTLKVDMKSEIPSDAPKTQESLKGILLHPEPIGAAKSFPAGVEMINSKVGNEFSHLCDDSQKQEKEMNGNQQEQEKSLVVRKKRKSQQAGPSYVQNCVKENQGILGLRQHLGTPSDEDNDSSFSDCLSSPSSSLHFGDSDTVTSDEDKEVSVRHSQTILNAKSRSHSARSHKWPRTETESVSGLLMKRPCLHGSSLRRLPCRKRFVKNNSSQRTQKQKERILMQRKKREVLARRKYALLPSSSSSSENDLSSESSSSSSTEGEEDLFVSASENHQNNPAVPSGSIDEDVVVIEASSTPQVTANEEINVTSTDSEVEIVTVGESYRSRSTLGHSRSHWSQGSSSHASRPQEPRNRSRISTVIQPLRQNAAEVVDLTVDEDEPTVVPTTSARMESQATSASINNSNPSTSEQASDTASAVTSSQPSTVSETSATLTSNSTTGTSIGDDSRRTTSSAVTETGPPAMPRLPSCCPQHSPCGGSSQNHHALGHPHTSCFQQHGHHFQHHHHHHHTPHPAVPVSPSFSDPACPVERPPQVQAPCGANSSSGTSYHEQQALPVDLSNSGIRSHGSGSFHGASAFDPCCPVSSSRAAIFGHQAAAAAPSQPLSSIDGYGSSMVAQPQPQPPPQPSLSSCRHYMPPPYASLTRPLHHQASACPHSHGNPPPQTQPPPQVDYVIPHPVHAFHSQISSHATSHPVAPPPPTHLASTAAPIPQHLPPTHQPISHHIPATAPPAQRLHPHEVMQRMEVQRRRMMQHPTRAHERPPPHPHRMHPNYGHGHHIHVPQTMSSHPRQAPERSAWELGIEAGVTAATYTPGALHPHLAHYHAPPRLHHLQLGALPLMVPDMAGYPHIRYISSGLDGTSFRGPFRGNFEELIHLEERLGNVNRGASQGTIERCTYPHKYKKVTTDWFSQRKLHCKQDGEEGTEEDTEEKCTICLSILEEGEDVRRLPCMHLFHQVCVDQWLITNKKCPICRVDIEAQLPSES
B2: Kinetochore protein NDC80 homolog (Homo sapiens), O14777 (parent)
chain: MKRSSVSSGGAGRLSMQELRSQDVNKQGLYTPQTKEKPTFGKLSINKPTSERKVSLFGKRTSGHGSRNSQLGIFSSSEKIKDPRPLNDKAFIQQCIRQLCEFLTENGYAHNVSMKSLQAPSVKDFLKIFTFLYGFLCPSYELPDTKFEEEVPRIFKDLGYPFALSKSSMYTVGAPHTWPHIVAALVWLIDCIKIHTAMKESSPLFDDGQPWGEETEDGIMHNKLFLDYTIKCYESFMSGADSFDEMNAELQSKLKDLFNVDAFKLESLEAKNRALNEQIARLEQEREKEPNRLESLRKLKASLQGDVQKYQAYMSNLESHSAILDQKLNGLNEEIARVELECETIKQENTRLQNIIDNQKYSVADIERINHERNELQQTINKLTKDLEAEQQKLWNEELKYARGKEAIETQLAEYHKLARKLKLIPKGAENSKGYDFEIKFNPEAGANCLVKYRAQVYVPLKELLNETEEEINKALNKKMGLEDTLEQLNAMITESKRSVRTLKEEVQKLDDLYQQKIKEAEEEDEKCASELESLEKHKHLLESTVNQGLSEAMNELDAVQREYQLVVQTTTEERRKVGNNLQRLLEMVATHVGSVEKHLEEQIAKVDREYEECMSEDLSENIKEIRDKYEKKATLIKSSEE
partner: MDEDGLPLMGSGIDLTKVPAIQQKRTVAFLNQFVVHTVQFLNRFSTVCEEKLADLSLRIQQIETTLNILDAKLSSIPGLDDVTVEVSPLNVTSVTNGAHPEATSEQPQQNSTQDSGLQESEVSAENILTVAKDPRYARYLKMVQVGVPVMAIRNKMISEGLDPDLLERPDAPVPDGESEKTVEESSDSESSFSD
B3: Casein kinase II subunit alpha (Homo sapiens), P68400 (parent)
chain: B1 chain
partner: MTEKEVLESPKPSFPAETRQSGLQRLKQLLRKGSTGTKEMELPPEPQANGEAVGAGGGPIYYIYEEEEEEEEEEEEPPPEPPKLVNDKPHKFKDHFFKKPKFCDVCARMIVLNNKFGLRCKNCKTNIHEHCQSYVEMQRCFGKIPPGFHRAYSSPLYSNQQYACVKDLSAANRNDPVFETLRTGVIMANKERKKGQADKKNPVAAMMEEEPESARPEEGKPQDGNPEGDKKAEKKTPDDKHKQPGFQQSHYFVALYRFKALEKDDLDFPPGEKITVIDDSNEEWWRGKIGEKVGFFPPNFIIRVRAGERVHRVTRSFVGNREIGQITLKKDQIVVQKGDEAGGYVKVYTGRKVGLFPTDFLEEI
B4: Pre-B-cell leukemia transcription factor 4 (Homo sapiens), Q9BYU1 (parent)
chain: MAAPPRPAPSPPAPRRLDTSDVLQQIMAITDQSLDEAQARKHALNCHRMKPALFSVLCEIKEKTVVSIRGIQDEDPPDAQLLRLDNMLLAEGVCRPEKRGRGGAVARAGTATPGGCPNDNSIEHSDYRAKLSQIRQIYHSELEKYEQACREFTTHVTNLLQEQSRMRPVSPKEIERMVGAIHGKFSAIQMQLKQSTCEAVMTLRSRLLDARRKRRNFSKQATEVLNEYFYSHLNNPYPSEEAKEELARKGGLTISQVSNWFGNKRIRYKKNMGKFQEEATIYTGKTAVDTTEVGVPGNHASCLSTPSSGSSGPFPLPSAGDAFLTLRTLASLQPPPGGGCLQSQAQGSWQGATPQPATASPAGDPGSINSSTSN
partner: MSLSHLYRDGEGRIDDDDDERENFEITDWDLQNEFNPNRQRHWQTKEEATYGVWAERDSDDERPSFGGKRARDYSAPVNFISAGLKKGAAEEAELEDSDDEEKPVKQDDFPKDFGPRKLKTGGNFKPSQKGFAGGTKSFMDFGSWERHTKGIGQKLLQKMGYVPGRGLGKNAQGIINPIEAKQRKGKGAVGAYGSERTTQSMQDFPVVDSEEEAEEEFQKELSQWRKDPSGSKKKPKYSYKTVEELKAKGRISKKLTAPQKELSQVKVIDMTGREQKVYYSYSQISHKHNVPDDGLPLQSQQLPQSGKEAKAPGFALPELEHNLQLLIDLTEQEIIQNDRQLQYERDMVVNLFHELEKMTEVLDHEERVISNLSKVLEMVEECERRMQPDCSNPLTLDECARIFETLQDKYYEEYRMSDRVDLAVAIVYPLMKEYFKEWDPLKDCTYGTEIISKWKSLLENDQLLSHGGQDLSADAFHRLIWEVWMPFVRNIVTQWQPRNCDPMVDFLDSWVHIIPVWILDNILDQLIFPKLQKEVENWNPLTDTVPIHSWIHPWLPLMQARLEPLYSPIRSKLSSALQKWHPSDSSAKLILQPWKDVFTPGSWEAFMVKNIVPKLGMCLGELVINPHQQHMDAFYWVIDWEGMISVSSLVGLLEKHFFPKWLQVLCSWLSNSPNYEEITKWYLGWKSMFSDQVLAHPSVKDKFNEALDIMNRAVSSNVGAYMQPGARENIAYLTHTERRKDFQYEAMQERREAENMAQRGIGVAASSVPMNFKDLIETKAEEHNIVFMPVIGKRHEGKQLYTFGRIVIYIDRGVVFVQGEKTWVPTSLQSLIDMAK
B5: Zinc finger protein 64 (Homo sapiens), Q9NTW7 (parent)
chain: MNASSEGESFAGSVQIPGGTTVLVELTPDIHICGICKQQFNNLDAFVAHKQSGCQLTGTSAAAPSTVQFVSEETVPATQTQTTTRTITSETQTITVSAPEFVFEHGYQTYLPTESNENQTATVISLPAKSRTKKPTTPPAQKRLNCCYPGCQFKTAYGMKDMERHLKIHTGDKPHKCEVCGKCFSRKDKLKTHMRCHTGVKPYKCKTCDYAAADSSSLNKHLRIHSDERPFKCQICPYASRNSSQLTVHLRSHTASELDDDVPKANCLSTESTDTPKAPVITLPSEAREQMATLGERTFNCCYPGCHFKTVHGMKDLDRHLRIHTGDKPHKCEFCDKCFSRKDNLTMHMRCHTSVKPHKCHLCDYAAVDSSSLKKHLRIHSDERPYKCQLCPYASRNSSQLTVHLRSHTGDTPFQCWLCSAKFKISSDLKRHMIVHSGEKPFKCEFCDVRCTMKANLKSHIRIKHTFKCLHCAFQGRDRADLLEHSRLHQADHPEKCPECSYSCSSAAALRVHSRVHCKDRPFKCDFCSFDTKRPSSLAKHVDKVHRDEAKTENRAPLGKEGLREGSSQHVAKIVTQRAFRCETCGASFVRDDSLRCHKKQHSDQSENKNSDLVTFPPESGASGQLSTLVSVGQLEAPLEPSQDL
partner: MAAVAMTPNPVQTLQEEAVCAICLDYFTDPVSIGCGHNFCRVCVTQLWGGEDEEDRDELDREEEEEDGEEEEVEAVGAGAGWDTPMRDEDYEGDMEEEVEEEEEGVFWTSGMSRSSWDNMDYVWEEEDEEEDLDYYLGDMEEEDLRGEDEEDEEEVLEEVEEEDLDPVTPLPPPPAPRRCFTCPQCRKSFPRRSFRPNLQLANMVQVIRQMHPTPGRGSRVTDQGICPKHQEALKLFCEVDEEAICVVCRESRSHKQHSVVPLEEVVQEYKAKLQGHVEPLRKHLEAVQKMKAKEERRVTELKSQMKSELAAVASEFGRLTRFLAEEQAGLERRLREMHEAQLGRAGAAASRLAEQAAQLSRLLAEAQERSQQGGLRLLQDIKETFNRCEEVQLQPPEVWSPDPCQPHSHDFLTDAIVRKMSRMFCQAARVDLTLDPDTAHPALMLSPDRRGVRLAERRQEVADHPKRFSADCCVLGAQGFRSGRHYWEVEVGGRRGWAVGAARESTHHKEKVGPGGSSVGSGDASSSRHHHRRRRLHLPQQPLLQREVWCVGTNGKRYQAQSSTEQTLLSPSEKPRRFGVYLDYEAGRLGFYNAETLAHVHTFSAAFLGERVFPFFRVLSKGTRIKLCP

Variants of: B1
Details: with rn111_human RNF111, Q6ZNA4

Variant | effect of a mutation on the interaction
K198R | with no effect

Variants of: B2
Details: with wasc3_human WASHC3, Q9Y3C0

Variant | effect of a mutation on the interaction
K288E | with no effect

Variants of: B3
Details: with stac3_human STAC3, Q96MF2

Variant | effect of a mutation on the interaction
K198R | with no effect

Variants of: B4
Details: with tfp11_human TFIP11, Q9UBB9

Variant | effect of a mutation on the interaction
A247T | with no effect

Variants of: B5
Details: with tri41_human TRIM41, Q8WV44

Variant | effect of a mutation on the interaction
D227E | with no effect

— IntAct's records for PubMed 29892012
